The text below walks through data of patent publication US20240417453A1 (ANWITA BIOSCIENCES, published 2024).

Substitutions are numbered along the chain they refer to. In names and notes the source's numbering stands.

Sequences and labels used below:
B1: Anti-HSA-IL-2 A2 (IL-2-IL15 chimera 12) (other)
chain: QVQLVESGGGVVQPGGSLRLSCAASGFAFRGFGMSWVRQAPGKGLEWVSSINNGGSDTYYADSVKGRFTISRDNSKNTLYLQMNSLRAEDTAVYYCAIGGPGASPSGQGTQVTVSSGGGGSGGGGSGGGGSAPTSSSTKKTQLQLKHLLLDLQMILNGIQSMHIDATTFKFYMPKKATELKHLQCLEEELKPLEEVLNLAQSKNFHLRPRDLISNINVIVLELKGSETTFMCEYADETATIVEFLNRWITFSQSIISTLT
notes: E15K, C125S); Produced in CHO cells; also called anti-HSA-hIL-2 fusion protein A2
B2: Anti-HSA-IL-2 A1 (IL-2-IL15 chimera 7) (other)
chain: B1 chain with H163E
notes: E15K, C125S); Produced in CHO cells; also called anti-HSA-hIL-2 fusion protein A1
B3: Anti-HSA-IL-2 A15 (IL-2-IL15 chimera 12) (other)
chain: B1 chain with G117A, G118S, G119T, G120K, S121G
notes: Produced in CHO cells; also called anti-HSA-hIL-2 fusion protein A15
B4: Anti-HSA-IL-2 A17 (IL-2-IL15 chimera 12) (other)
chain: EVQLVESGGGLVQPGGSLRLSCAASGSTWSINTLAWYRQAPGKQRDLVARISSGGSTYYADSVKGRFTISRDNSKNTLYLQMNSLRAEDTAVYYCYAQSTWYPPSWGQGTLVTVSSASTKGGGGGSGGGGSAPTSSSTKKTQLQLKHLLLDLQMILNGIQSMHIDATTFKFYMPKKATELKHLQCLEEELKPLEEVLNLAQSKNFHLRPRDLISNINVIVLELKGSETTFMCEYADETATIVEFLNRWITFSQSIISTLT
notes: Produced in CHO cells; also called anti-HSA-hIL-2 fusion protein A17
B5: Anti-HSA-IL-2 A3 (IL-2-IL15 chimera 7) (other)
chain: B4 chain with A117G, S118G, T119G, K120G, G121S, H163E
notes: Produced in CHO cells; also called anti-HSA-hIL-2 fusion protein A3
B6: Anti-HSA-IL-2 A4 (IL-2-IL15 chimera 12) (other)
chain: B4 chain with A117G, S118G, T119G, K120G, G121S
notes: Produced in CHO cells; also called anti-HSA-hIL-2 fusion protein A4

One experiment concerns the target T1, human IL-2Rβ (CD122) (human, UniProt P14784 27-239).
T1 construct: also called hIL-2Rβ
T1 sequence: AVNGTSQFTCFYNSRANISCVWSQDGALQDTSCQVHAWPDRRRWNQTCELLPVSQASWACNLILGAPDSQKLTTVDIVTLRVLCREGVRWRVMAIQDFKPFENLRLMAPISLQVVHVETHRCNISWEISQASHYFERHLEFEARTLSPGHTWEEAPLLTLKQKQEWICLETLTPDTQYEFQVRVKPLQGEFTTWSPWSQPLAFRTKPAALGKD
The experiment can be described thus: BLI (OCTET RED96), receptor loaded on biosensor, global fitting. How it is done:
(§1) OCTET® RED96 was used to characterize the interactions of anti-HSA-hIL-2 fusion proteins with human IL-2Rα (CD25) and IL-2Rβ (CD122). Briefly, hIL-2Rα and hIL-2Rβ were each loaded onto a biosensor. Each biosensor was then dipped into a solution containing an anti-HSA-hIL-2 fusion protein at 10 to 2,000 nM. Primary experimental data was analyzed with global fitting to determine a binding affinity (Kd).
B1 displayed a Kd of 139 nM.

The molecule B2 registered a Kd of 55 nM.

In turn, B3 yielded an equilibrium dissociation constant (Kd) of 94 nM.

The target in the next experiment is T2, human IL-2Rα (CD25) (human, UniProt P01589 22-240, limits assumed).
T2 construct: also called hIL-2Rα
T2 sequence: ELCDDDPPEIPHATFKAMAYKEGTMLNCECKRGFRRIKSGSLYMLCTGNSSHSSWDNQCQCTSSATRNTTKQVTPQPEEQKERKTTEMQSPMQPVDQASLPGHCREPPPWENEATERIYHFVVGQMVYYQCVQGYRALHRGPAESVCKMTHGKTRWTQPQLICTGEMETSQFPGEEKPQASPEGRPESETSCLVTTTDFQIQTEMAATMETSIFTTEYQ
The experiment can be described thus: BLI (OCTET RED96), receptor loaded on biosensor, fusion protein in solution. How it is done: as §1
Consider B2, for which the binding result is on record as “no binding (tested: 10 to 2,000 nM)”.

Regarding B3, the binding result is “no binding (tested: 10 to 2,000 nM)”.

Take B4: the binding result was “no binding (tested: 10 to 2,000 nM)”.

On to B5, for which the binding result was “no binding (tested: 10 to 2,000 nM)”.

For another experiment, the target named is T2, human IL-2Rα (CD25). The experiment can be described thus: BLI (OCTET RED96), hIL-2Rα loaded on the biosensor, fusion protein in solution at 33.3, 100 and 300 nM. How it is done: as §1
With B1, the binding result was “no binding (tested: 300 nM)”.

For the molecule B6, the binding result was “no binding (tested: 300 nM)”.

In general, Kd refers to a measure of binding affinity in units of concentration. A lower Kd goes with tighter binding.
